Article PMC6778029

How the values were obtained:
[1] = target: T1, hnRNPG wild-type (Homo sapiens, UniProt P38159 1-391); experiment: limited proteolysis protection
[2] = target: hnRNPG RRMmut (Homo sapiens, UniProt P38159 1-391, K9A;F11A;R49A;F51A;F53A); experiment: limited proteolysis protection
[3] = target: T1, hnRNPG wild-type; experiment: spin-down

Chain of hnRNPG RRMmut (P38159 whole entry K9A/F11A/R49A/F51A/F53A): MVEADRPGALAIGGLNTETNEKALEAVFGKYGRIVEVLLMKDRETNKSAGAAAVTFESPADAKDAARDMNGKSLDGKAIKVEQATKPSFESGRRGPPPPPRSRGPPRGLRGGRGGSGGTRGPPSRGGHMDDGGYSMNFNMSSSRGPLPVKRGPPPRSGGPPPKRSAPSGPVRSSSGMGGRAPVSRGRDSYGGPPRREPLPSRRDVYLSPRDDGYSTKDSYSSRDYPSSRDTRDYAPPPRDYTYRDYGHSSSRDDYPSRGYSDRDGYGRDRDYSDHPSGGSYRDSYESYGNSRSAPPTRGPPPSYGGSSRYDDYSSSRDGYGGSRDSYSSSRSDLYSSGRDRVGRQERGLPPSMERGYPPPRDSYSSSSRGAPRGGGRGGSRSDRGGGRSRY
T1 sequence (P38159 whole entry): as the sequence (P38159 whole entry K9A/F11A/R49A/F51A/F53A) above, with A9K, A11F, A49R, A51F, A53F counted along it

Binder | binding result [1] | binding result [2] | binding result [3]
GGGUACGACGGAUAUCGUGGGGGGGGAAAUUGCUUUCGGUUCCGACUCUG (structured_RNA) [WEc RNA] | binds | no binding | –
AAUGUGAAGGACUUUCGUAACGGAAGUAAUUCAA (structured_RNA) [MALAT1 hairpin 2515-A] | – | no binding | binds
AAUGUGAAGGACUUUCGUAACGGAAGUAAUUCAA (structured_RNA, m6A at position 11) [MALAT1 hairpin 2515-m6A] | – | no binding | binds
SMN2exon7 RNA (ssRNA) RNA: GGUUUUAGACAAAAUCAAAAAGAAGGAAGGUGCUCACAUUCCUUAAAUUAAGGA | binds | no binding | –
